Earlier results, collected in patent US5780279A, “Method of selection of proteolytic cleavage sites by directed evolution and phagemid display” (Genentech, Inc., priority 1995, dated 1998).
Where no end group is shown, it is not given here.

Target: A64SAL subtilisin (Bacillus amyloliquefaciens, UniProt P00782, E263S/G276A/H171A/S131C/Y324L)
Conditions: Carter et al (1989)

Sequence of A64SAL subtilisin (P00782 108-382 S131C/H171A/E263S/G276A/Y324L): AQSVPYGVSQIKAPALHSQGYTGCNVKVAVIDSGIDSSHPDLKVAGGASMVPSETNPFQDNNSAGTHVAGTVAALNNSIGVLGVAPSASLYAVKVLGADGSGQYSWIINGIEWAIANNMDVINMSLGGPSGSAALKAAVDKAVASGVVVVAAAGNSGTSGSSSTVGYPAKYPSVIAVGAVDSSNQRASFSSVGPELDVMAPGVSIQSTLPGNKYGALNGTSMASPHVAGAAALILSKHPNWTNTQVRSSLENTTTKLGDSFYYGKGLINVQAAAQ

Substance: AAHYTRQ
- substrate quality for A64SAL subtilisin: good substrate
